In the RNAGym collection of RNA variant scans (doi:10.1093/molbev/msab373):

B1: Azoarcus group I ribozyme (parent)
chain: GUGCCUUGCGCCGGGAAACCACGCAAGGGAUGGUGUCAAAUUCGGCGAAACCUAAGCGCCCGCCCGGGCGUAUGGCAACGCCGAGCCAAGCUUCGGCGCCUGCGCCGAUGAAGGUGUAGAGACUAGACGGCACCCACCUAAGGCAAACGCUAUGGUGAAGGCAUAGUCCAGGGAGUGGCGAAAGUCACACAAACCGG

Variants of: B1
Assay: reverse-splicing fitness (ratio to wild type); higher = more active; in vitro selection; Mg2+ level not given
Method in brief: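 An in vitro group I ribozyme library with randomized positions was T7-transcribed and gel-purified. In triplicate, 10 pmol RNA in EPPS pH 7.5 was reacted with 50 pmoles of a 30-nt RNA substrate for 1 h at 37 °C across several added MgCl2 levels (1–48 mM), then stopped with EDTA. Products were reverse transcribed from a substrate-complementary primer, PCR-amplified and sequenced (HiSeq 4000). Fitness is a variant's read proportion after selection over that before, normalised to wild type.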

Row | Variant | reverse-splicing fitness
1 | GUGCCUUGCGCCGGGAAACCACGCAAGGGAUGGUGUCAAAUUCGGCGAAACCUAAGCGCCCGCCCGGGCGUAUGGCAACGCCGAGCCAAGCUUCGGCGCCUGCGCCGAUGUAGGUGUAGCGACUAGACGGCACCCACCUAAGGCUAACGCUAUGGUGAAGGCAUAGUCCAGGGAGCGGCGAAAGUCACACAAACCGG [A111U A120C A145U U176C] | 0.3
2 | GUGCCUUGCGCCGGGAAACCACGCAAGGGAUGGUGUCAAAUUCGGCGAAACCUAAGCGCCCGCCCGGGCGUAUGGCAACGCCGAGCCAAGCUUCGGCGCCUGCGCCGAUGUAGGUGUAGCGACUAGACGGCACCCACCUAAGGCUAACGCUAUGGUGAAGGCAUAGUCCAGGGAGGGGCGAAAGUCACACAAACCGG [A111U A120C A145U U176G] | 0.0572
3 | GUGCCUUGCGCCGGGAAACCACGCAAGGGAUGGUGUCAAAUUCGGCGAAACCUAAGCGCCCGCCCGGGCGUAUGGCAACGCCGAGCCAAGCUUCGGCGCCUGCGCCGAUGUAGGUGUAGCGACUAGACGGCACCCACCUAAGGCAAACGAUAUGGUGAAGGCAUAGUCCAGGGAGUGGCGAAAGUCACACAAACCGG [A111U A120C C150A] | 0.0636
4 | GUGCCUUGCGCCGGGAAACCACGCAAGGGAUGGUGUCAAAUUCGGCGAAACCUAAGCGCCCGCCCGGGCGUAUGGCAACGCCGAGCCAAGCUUCGGCGCCUGCGCCGAUGUAGGUGUAGCGACUAGACGGCACCCACCUAAGGCAAACGAUAUGGUGAAGGCAUAGUCAAGGGAGUGGCGAAAGUCACACAAACCGG [A111U A120C C150A C169A] | 0.0105
5 | GUGCCUUGCGCCGGGAAACCACGCAAGGGAUGGUGUCAAAUUCGGCGAAACCUAAGCGCCCGCCCGGGCGUAUGGCAACGCCGAGCCAAGCUUCGGCGCCUGCGCCGAUGUAGGUGUAGCGACUAGACGGCACCCACCUAAGGCAAACGAUAUGGUGAAGGCAUAGUCAAGGGAGAGGCGAAAGUCACACAAACCGG [A111U A120C C150A C169A U176A] | 0.0178
6 | GUGCCUUGCGCCGGGAAACCACGCAAGGGAUGGUGUCAAAUUCGGCGAAACCUAAGCGCCCGCCCGGGCGUAUGGCAACGCCGAGCCAAGCUUCGGCGCCUGCGCCGAUGUAGGUGUAGCGACUAGACGGCACCCACCUAAGGCAAACGAUAUGGUGAAGGCAUAGUCAAGGGAGCGGCGAAAGUCACACAAACCGG [A111U A120C C150A C169A U176C] | 0.0133
7 | GUGCCUUGCGCCGGGAAACCACGCAAGGGAUGGUGUCAAAUUCGGCGAAACCUAAGCGCCCGCCCGGGCGUAUGGCAACGCCGAGCCAAGCUUCGGCGCCUGCGCCGAUGUAGGUGUAGCGACUAGACGGCACCCACCUAAGGCAAACGAUAUGGUGAAGGCAUAGUCAAGGGAGGGGCGAAAGUCACACAAACCGG [A111U A120C C150A C169A U176G] | 0.00474
8 | GUGCCUUGCGCCGGGAAACCACGCAAGGGAUGGUGUCAAAUUCGGCGAAACCUAAGCGCCCGCCCGGGCGUAUGGCAACGCCGAGCCAAGCUUCGGCGCCUGCGCCGAUGUAGGUGUAGCGACUAGACGGCACCCACCUAAGGCAAACGAUAUGGUGAAGGCAUAGUCGAGGGAGUGGCGAAAGUCACACAAACCGG [A111U A120C C150A C169G] | 0.00847
9 | GUGCCUUGCGCCGGGAAACCACGCAAGGGAUGGUGUCAAAUUCGGCGAAACCUAAGCGCCCGCCCGGGCGUAUGGCAACGCCGAGCCAAGCUUCGGCGCCUGCGCCGAUGUAGGUGUAGCGACUAGACGGCACCCACCUAAGGCAAACGAUAUGGUGAAGGCAUAGUCGAGGGAGAGGCGAAAGUCACACAAACCGG [A111U A120C C150A C169G U176A] | 0.0168
10 | GUGCCUUGCGCCGGGAAACCACGCAAGGGAUGGUGUCAAAUUCGGCGAAACCUAAGCGCCCGCCCGGGCGUAUGGCAACGCCGAGCCAAGCUUCGGCGCCUGCGCCGAUGUAGGUGUAGCGACUAGACGGCACCCACCUAAGGCAAACGAUAUGGUGAAGGCAUAGUCGAGGGAGCGGCGAAAGUCACACAAACCGG [A111U A120C C150A C169G U176C] | 0.0197
11 | GUGCCUUGCGCCGGGAAACCACGCAAGGGAUGGUGUCAAAUUCGGCGAAACCUAAGCGCCCGCCCGGGCGUAUGGCAACGCCGAGCCAAGCUUCGGCGCCUGCGCCGAUGUAGGUGUAGCGACUAGACGGCACCCACCUAAGGCAAACGAUAUGGUGAAGGCAUAGUCGAGGGAGGGGCGAAAGUCACACAAACCGG [A111U A120C C150A C169G U176G] | 0.00525
12 | GUGCCUUGCGCCGGGAAACCACGCAAGGGAUGGUGUCAAAUUCGGCGAAACCUAAGCGCCCGCCCGGGCGUAUGGCAACGCCGAGCCAAGCUUCGGCGCCUGCGCCGAUGUAGGUGUAGCGACUAGACGGCACCCACCUAAGGCAAACGAUAUGGUGAAGGCAUAGUCUAGGGAGUGGCGAAAGUCACACAAACCGG [A111U A120C C150A C169U] | 0.0239
13 | GUGCCUUGCGCCGGGAAACCACGCAAGGGAUGGUGUCAAAUUCGGCGAAACCUAAGCGCCCGCCCGGGCGUAUGGCAACGCCGAGCCAAGCUUCGGCGCCUGCGCCGAUGUAGGUGUAGCGACUAGACGGCACCCACCUAAGGCAAACGAUAUGGUGAAGGCAUAGUCUAGGGAGAGGCGAAAGUCACACAAACCGG [A111U A120C C150A C169U U176A] | 0.0243
14 | GUGCCUUGCGCCGGGAAACCACGCAAGGGAUGGUGUCAAAUUCGGCGAAACCUAAGCGCCCGCCCGGGCGUAUGGCAACGCCGAGCCAAGCUUCGGCGCCUGCGCCGAUGUAGGUGUAGCGACUAGACGGCACCCACCUAAGGCAAACGAUAUGGUGAAGGCAUAGUCUAGGGAGCGGCGAAAGUCACACAAACCGG [A111U A120C C150A C169U U176C] | 0.0196
15 | GUGCCUUGCGCCGGGAAACCACGCAAGGGAUGGUGUCAAAUUCGGCGAAACCUAAGCGCCCGCCCGGGCGUAUGGCAACGCCGAGCCAAGCUUCGGCGCCUGCGCCGAUGUAGGUGUAGCGACUAGACGGCACCCACCUAAGGCAAACGAUAUGGUGAAGGCAUAGUCUAGGGAGGGGCGAAAGUCACACAAACCGG [A111U A120C C150A C169U U176G] | 0.00713
